From patent US20200270704A1 (published 2020)
Read-outs that look alike come from different tables or passages of the source.

Experiments:
NY-ESO-1 [1] = molecular target: T1, NY-ESO-1 (human, UniProt P78358 1-180); assay: SPR
NY-ESO-1 [2] = molecular target: T1, NY-ESO-1; assay: SPR; remark: listed apart in the source

T1 sequence (P78358 whole entry): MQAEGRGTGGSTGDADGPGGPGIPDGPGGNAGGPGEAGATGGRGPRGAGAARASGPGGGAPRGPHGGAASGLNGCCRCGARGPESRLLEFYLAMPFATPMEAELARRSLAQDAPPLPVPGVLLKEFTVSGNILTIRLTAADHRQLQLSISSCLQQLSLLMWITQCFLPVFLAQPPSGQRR

B1: BC2-3G1 (antibody, V domains shown)
VH: QVQLQQSGPGLVKPSQTLSLTCAISGDSVSSNSAAWNWIRQSPSRGLEWLGRTYYRSKWYNDYAVSVKSRITINPDTSKNQFSLQLNSVTPEDTAVYYCARDLGIAAAGDFDYWGQGTLVTVSS
VL: EIVLTQSPATLSLSPGERATLSCRASQGVSSYLAWYQQKPGQAPRLLIYDASNRATGIPARFSGSGSGTDFTLTISSLEPEDFAVYYCHQGSNWPTFGGGTKVEI
- Kd (NY-ESO-1 [1]): 37 nM
- Kd (NY-ESO-1 [2]): 37 nM
